Measured values taken from the DeepSol protein solubility set.

Experiment: soluble on expression in E. coli; label from the status in PepcDB or PDB records
For “MTARYIAIDWGSTNLRAWLYQGEECLESRQSEAGVTRLNGRSPAAVLAEITQHWRDGATPVVMAGMVGSNVGWKIAPYLPLPAAFSDIGQQLTAVGDNIWIIPGLCVSRDDNHNVMRGEETQLLGARALAPSSVYVMPGTHCKWVLADRRQIHDFRTVLTGELHHLLLQLSLVGAGLPPQETSAAAFAAGLQRGINNPAVLPQLFEVRASHVLGALPREQVSEFLSGLLIGAEVATLSDTFAGQQAISLVAGSSLTSRYQQAFAAIGREVSAVAGDTAFQTGIRSIAYAVAN”, the “soluble on expression in E. coli” value was “soluble”.
In the case of “MTCEVLITEFVAHPSDITDAYARYQQRIQDAPLHIVCSSPRPLPSKGSAYAQWSLRCESAYAQKSHPELMQCYELRSLVTYEETPDPDDSLIEKFFFEDCAEPTVYSASVNRLDIELGAVDTRCTDELCIVTPVFLAHSEHAEVLQSLYEVLVSNADPVAYAASIAECDDISQANLIGLLWVRDAQRTMSNVGDQIYAMGKTAWTGWILVEASKQEELQLQLSELIDATNAVAYLTATPW”, the “soluble on expression in E. coli” value is reported as “soluble”.
With “MTCVGDIMLAGSATPTLSRSGYDYPFAKTAQELRRGDIAMGNLEAPLTERGTEYRDKTYRFRTNPIAAAALKRAGFSVLTLANNHMMDYGNEGLQDTLATLSRHGIAHTGAGASLAEARREAVVSVRGKRIAFLAYSLTFPSEFYAGPNRPGTAPGYAPHVREDIRRAKAEADYVVVSFHWGAERAEFPKQYQTETARLAIDAGADAIIGHHPHVLQGIEFYRGKPILYSLGNFAFGSRSTAADRSVMARLTLSDEETSVELVPLNVLHRETRYQPGILAGRKGAEVIERLNRLSQPFGTVISGSAGRFRARTSGADQRIATRLEHHHHHH” the “soluble on expression in E. coli” value was “not soluble”.
In the case of “MTDAQSRDEKGIPASIYDGIFKNNRQIKPGNPNELKMVMGLKLKEVNKDCADAVLRVSKATLSWEIVREIMNATERLIQERVSDPTGQVAIAVDPPSSWSKSVTDFLASCYKLSPSPNFKFLELLAILTGKSQYLILQWFDTAEEEKREKNQKLETATFKRHCPWRKRHRLIQPLSNATAIPFLEAAFQKSSIPGSVELYDLQLKTNWFICELKAWFTARRVAEEIKGKLSELTGVQGVAKDQS”, the “soluble on expression in E. coli” value is reported as “not soluble”.
In the case of “MTDEKKDDRPVYQAACHCGTVRFELRLTDGLRTARRCNCSLCRMRGAVAVSANLGDITVTQGEEALTLYQFHTREAKHYFCSRCGIYTFHQRRSAPDQYGVNVACIEGMSPFDFADVPVSEGRVHPKDRVDGGVGVAGWLRYEGNPEWGQGLEHHHHHH”, the “soluble on expression in E. coli” value is reported as “soluble”.
For “MTDGPIKVNSEIGALKTVLLKRPGKELENLVPDYLDGLLFDDIPYLEVAQKEHDHFAQVLREEGVEVLYLEKLAAESIENPQVRSEFIDDVLAESKKTILGHEEEIKTLFATLSNQELVDKIMSGVRKEEINPKCTHLVEYMDDKYPFYLDPMPNLYFTRDPQASIGHGITINRMFWRARRRESIFIQYIVKHHPRFKDANIPIWLDRDCPFNIEGGDELVLSKDVLAIGVSERTSAQAIEKLARRIFENPQATFKKVVAIEIPTSRTFMHLDTVFTMIDYDKFTMHSAILKAEGNMNIFIIEYDDVNKDIAIKQSSHLKDTLEDVLGIDDIQFIPTGNGDVIDGAREQWNDGSNTLCIRPGVVVTYDRNYVSNDLLRQKGIKVIEISGSELVRGRGGPRCMSQPLFREDI”, the “soluble on expression in E. coli” value was “not soluble”.
With “MTDHTMKKNPVSIPHTVWYADDIRRGEREAADVLGLTLYELMLRAGEAAFQVCRSAYPDARHWLVLCGHGNNGGDGYVVARLAKAVGIEVTLLAQESDKPLPEEAALAREAWLNAGGEIHASNIVWPESVDLIVDALLGTGLRQAPRESISQLIDHANSHPAPIVAVDIPSGLLAETGATPGAVINADHTITFIALKPGLLTGKARDVTGQLHFDSLGLDSWLAGQETKIQRFSAEQLSHWLKPRRPTSHKGDHGRLVIIGGDHGTAGAIRMTGEAALRAGAGLVRVLTRSENIAPLLTARPELMVHELTMDSLTESLEWADVVVIGPGLGQQEWGKKALQKVENFRKPMLWDADALNLLAINPDKRHNRVITPHPGEAARLLGCSVAEIESDRLHCAKRLVQRYGGVAVLKGAGTVVAAHPDALGIIDAGNAGMASGGMGDVLSGIIGALLGQKLSPYDAACAGCVAHGAAADVLAARFGTRGMLATDLFSTLQRIVNPEVTDKNHDESSNSAP” the “soluble on expression in E. coli” value was “soluble”.
In the case of “MTDIETIYKKLSHVISKEDFLQRIQEKVENMGGLCDETMAAMLVANELGFSDAGRDSIKIENITPESGPVNFIARIISVFDTKEFTRNDGTIGRVGNLIVGDETGKVKLTLWDNMADLIKMGKIKAGQSVQVSGFAKQGYSGVEVNIGNNGVLTESEEEIDVVSNSYKIKDIKDGMGDINLNGKVLEVSEIRTFQRKDGNSGRVGNLMLGDETGTLRVTLWDDKTDFLSQVEYGDSIELINAYARENAFSQKVELQVGNRSIIRKSEKKIEYEEEFTPIDDIKADMNNINISGRILDISEVRTFEKKDGSTGRVGNVLLGDSTGKIRLTLWDEKTDILEEIDFDETVEVLNAYSRENTFSQQVELNLGARGIIQRSEKKVEYREKFTDIADIIPGESYSIQGKVAEIGELREFEKEDGTENVVANLQLKDDTGSIRLTLWGEQAYVIEDLDIDSEIQIIDAYARYGLNEEIELSVGNRSRVIILLEHHHHHH”, the “soluble on expression in E. coli” value is reported as “soluble”.
For “MTDLTGILYIVATPIGNLQDITQRALETFAQVDLIAAEDTRHSGLLLSHYGIKKPFFALHDHNEQEKAHILVEKLKQGSNIALISDAGTPLISDPGFHLVRQCREAGIRVVPLPGACAAITALCASGIASDRFCFEGFLPAKSKARKDKLENIAEEDRTLIFYESTHRILDTLEDMQAVLGEERYIVLAREMTKTWETITGNTIKNLREWLLEDPNRTKGEMVLIVEGKPKSDNNDEISPQAVKALELIAEELPLKKAAAIVAELYGYKKNALYQFGLAHLEK”, the “soluble on expression in E. coli” value was “not soluble”.
In the case of “MTDNTRLRIAMQKSGRLSDDSRELLARCGIKINLHTQRLIAMAENMPIDILRVRDDDIPGLVMDGVVDLGIIGENVLEEELLNRRAQGEDPRYFTLRRLDFGGCRLSLATPVDEAWDGPLSLNGKRIATSYPHLLKRYLDQKGISFKSCLLNGSVEVAPRAGLADAICDLVSTGATLEANGLREVEVIYRSKACLIQRDGEMEESKQQLIDKLLTRIQGVIQARESKYIMMHAPTERLDEVIALLPGAERPTILPLAGDQQRVAMHMVSSETLFWETMEKLKALGASSILVLPIEKMME”, the “soluble on expression in E. coli” value is reported as “soluble”.
In the case of “MTDRKIRQISALLIEVYNGIMQVEDKYLRTTQFRDITVKEVHTIDAITMYDYKTTTAVARQLRLSPGTVTASIDKLVRKGYVVRLQSKDDQRVIRLGLTRRGRLIYRAHQSFHRQMTESFLNGMDPEQVDIIEHSLLNLQTFLQIADEKGDSNEND”, the “soluble on expression in E. coli” value is reported as “not soluble”.
In the case of “MTDSDNPRRVLLKLSGEAFGGGKVGIDTQVIRRIAEEIVPAVQQGVQVAIVVGGGNFFRGAELQQAGIDRSRGDYMGMLGTVMNCLALQDFLEQEGQATRVQTAITMGQVAEPYIPLKAIRHLEKGRVVIFGAGAGMPYFSTDTVSIQRSLEIHCDEVLMGKNGVDGVYTADPRKDENAKRFETLSYNRALVDNLAVMDASALSMARDNKKRIRVFGLEEPGNVTRALVGDEIGTLVSTAESRVAELEHHHHHH”, the “soluble on expression in E. coli” value is reported as “soluble”.
With “MTDTRKFKATDLFSFNNINLDPLTETFNISFYLSYLNKWPSLCVVQESDLSDPTLMGYIMGKSEGTGKEWHTHVTAITVAPNSRRLGLARTMMDYLETVGNSENAFFVDLFVRASNALAIDFYKGLGYSVYRRVIGYYSNPHGKDEDSFDMRKPLSRDVNRESIRENGENFKCSPADVSF” the “soluble on expression in E. coli” value was “soluble”.
For “MTDVEQPVSVEDQQAQAQSYYDQVLGNAYVQTAINAYTKTKEFHPLLNSTLNSAEEKVSTVGNYAAQKAYDGYNSYYVKPKNTAYEAVSYGTERAKTAVESGKQAAIVGGTFGIGAAVVLTQFSLALSAGGAALVLEQVDSAKKLGSSAISTIKEAELAVEHRIFSALHQAQRIAMVPVEKITENTNSLLDILDGAVQKGLNIEVPPSVNLTIGQRVKNLASLIVQGVSNKAHDHVIDPINERARNYLEQLSQSFVLLDIVREKKTWVIEKSNELSTSVFDFKKTLEEEAQKYKVAPEEMLMKHIQSTSEQLSTQLQSLREKGQNVFGDGTKIDSTIDYLENLKKNFTDAEDVYKVRDEVLNEGRQRIAELSTWTTSLLIISAEWQFEPEDLLIEELYFDAPPPVRTRNLYRNRA”, the “soluble on expression in E. coli” value was “not soluble”.
In the case of “MTEAGASIVVTVKNEGKNLRELLESIEKNDFTNFETVVVDDLSTDDTEDIVKSYRFTVYKRIACSRGEGRNIGVDLSRYGYILFTDGDAKVSEHWISGMVSALAAGNDAVIGNTLYTGKRRYMQERVKIFLEGIEVTAPSVNLAYRKDRFRQLGGFDPKFVTAEDIDLNIRAVKAGFRFATCDSCVVYAKVRENLASFLRQAYWNGYGRYQLEMKHPGITRNTRVRLGHNFFDFLHMVSGAAGYLSARISEGKQGRLEHHHHHH”, the “soluble on expression in E. coli” value is reported as “soluble”.
In the case of “MTEALEQPLRRILSYWRNEIKPLLDAETGTLFKQAPIRVTLAFPNRYSVGMASLGYQVIYRMFNQEEGVACERAFLPDDVDAFERTGQALPTVESGRAAGDCELFSISVSFELDLTNIIRLIDVAGMNPLREERDETDPVVMIGGPLTSSNPYPLTPFADIIIIGDGEQIVPVVSEALRESSSREDFYDLIDGVPGVFLPARHVHEPTWATAPKELLPAYSQIVTPHSELSNMFLVEAQRGCPRPCTFCLARTMYGPNRNNQAQELLDVIPDWVEKVGLVGAALSDFPHTKFVGKTLTERGVKLGVSSIRADTVDAELAEILKAGGLRTFTVASDAPSERLRRWLKKGITTEDLLKTAQISRDLGFSGLKVYMMIGLGPENDDDITELISFTKELAGINRIALGISPFVPKRHTPHFADPFAGVQTIEKRLKRIQKELRTTAELRNVSAKWAWVESVIARGGPEVGMAAYQIYRNESIGAWKKALDEVGWQDDFEANTPSIGLPPGQYESKEVSAHAQGLAVLEHHHHHH”, the “soluble on expression in E. coli” value is reported as “soluble”.
For “MTECIFCHQLKANQLLTQSQYFKVVFDIDPIQKGHLLLISKDHYTSLTQLPKEGHYDLIDLQAALVAKLEQHLPISGVTSVSNDKELMDEGTHFHLHLIPRLTNDSFWEGITINQENWDLTPFLKHL”, the “soluble on expression in E. coli” value was “not soluble”.
With “MTEEIAGFQTSPKAQVQAAFEEIARRSMHALSFLHPSMPVYVSDFTLFEGQWTGCVITPWMLSAVIFPGPDQLWPLRKVSEKIGLQLPYGTMTFTVGELDGVSQYLSCSLMSPLSHSMSIEEGQRLTDDCARMILSLPVTNPDVPHAGRRALLFGRRSGENA” the “soluble on expression in E. coli” value was “not soluble”.
For “MTEHNHDSQLEINNEEELLTLFDEEGNEVLYRKVLEFYHPEFKKEYVILAEEGAQSDEDDMIELVPMINEPDESGDGGKLVPIETDEEWDMIEEVVNTEMEELEHHHHHH”, the “soluble on expression in E. coli” value was “not soluble”.
In the case of “MTEKINIQEVLVVEGKDDTANLRRFYEVDTYETRGSAITEEDLERINRLNDLRGVIVLTDPDYNGERIRKLIMAAVPTARHAFLNRNEAVPSSKSKGRSLGVEHANFEDLQKALAHVTQQYDDESYFDIRQTDLIRLGLLMASDSRKRREYLGEKLRIGYANGKQLLKRLELFGITLAEVEEVMETYEE”, the “soluble on expression in E. coli” value is reported as “not soluble”.
For “MTELARLKFYATQPHSCSYLPEEQATTLFLDPSQPMDVHVYADLSEMGFRRSGDHLYRPHCQNCNACVPARIPAARFIPNRQQRRILKRNADLTVTAARPAFKEEYFELYRRYIETRHADGDMYPPSRDQFSTFLVRDLPFCWFYEFRLEGRLMAVAVCDLLPNGLSAVYTFYEPDEERRSLGRFAILWQITEALRQNLEAVYLGYWIKNCKKMNYKTQYRPIELLINQRWVTLNLEHHHHHH”, the “soluble on expression in E. coli” value was “not soluble”.
With “MTEMIRPRVKYVIGPDGSPLTIADLPPANTRRWVIRRKAEVVAAVRGGLLSLEEACERYTLTVEEFLSWQSSISDHGLAGLRTTRIQQYRHAAALEHHHHHH” the “soluble on expression in E. coli” value was “soluble”.
